B1: anti-CXCL13 3B4 scFv-Fc fusion protein (Fc fusion, human)
VH: QVQLVQSGAEVKKPGSSVKVSCKASGGTFSSYAISWVRQAPGQGLEWMGGIIPIFGTANYAQKFQGRVTITADESTSTAYMELSSLRSEDTAVYYCAREPDYYDSSGYYPIDAFDIWGQGTTVTVSS
VL: QSALTQPASVSASPGQSITISCTGTSSDVGAYDWVSWYQQHPGKAPKLLIFDVNNRPSGVSHRFSGSKSGNTASLTISGLQAEDEADYYCSSYTRRDTYVFGTGTKVTVL
B2: anti-CXCL13 C04 scFv-Fc fusion protein (Fc fusion, human)
VH: B1 VH
VL: B1 VL with Y93A, T94G, R95I, R96I, D97S, T98V
B3: anti-CXCL13 A01 scFv-Fc fusion protein (Fc fusion, human)
VH: B1 VH
VL: B1 VL with S91A, Y93T, R95L, R96F
B4: anti-CXCL13 C07 scFv-Fc fusion protein (Fc fusion, human)
VH: B1 VH
VL: B1 VL with Y93P, R95F, R96T, D97E, T98P
B5: anti-CXCL13 H08 scFv-Fc fusion protein (Fc fusion, human)
VH: B1 VH
VL: B1 VL with S91T, Y93V, R95V, R96E
B6: anti-CXCL13 E10 scFv-Fc fusion protein (Fc fusion, human)
VH: B1 VH
VL: B1 VL with S91A, Y93A, R95L, R96L
B7: anti-CXCL13 H06 scFv-Fc fusion protein (Fc fusion, human)
VH: B1 VH
VL: B1 VL with S91A, Y93V, T94V, R95V, R96T
B8: human CXCL13 (natural protein)
chain: VLEVYYTSLRCRCVQESSVFIPRRFIDRIQILPRGNGCPRKEIIVWKKNKSIVCVDPQAEWIQRMMEVLRKRSSSTLPVPVFKRKIP

Residue numbers refer to the chain shown, from its start.

The target in the first assay is human CXCL13 (Homo sapiens, UniProt O43927). Description: SPR.
With B1, the affinity, expressed as Kd, was 0.371 nM; the koff turned out to be 0.0121 s⁻¹; the kon was found to be 3.24e+07 M⁻¹ s⁻¹.

The molecule B2 came in with a Kd of 0.046 nM, an off-rate constant (koff) of 0.0003 s⁻¹ and a kon of 6.22e+06 M⁻¹ s⁻¹.

Consider B3, for which the Kd worked out at 0.0298 nM, the koff was 0.0003 s⁻¹ and the kon amounted to 9.28e+06 M⁻¹ s⁻¹.

For the molecule B4, binding was characterised by a dissociation constant (Kd) of 0.0279 nM, the koff is 0.0002 s⁻¹ and the kon turned out to be 8.03e+06 M⁻¹ s⁻¹.

In the case of B5, the Kd is 0.0199 nM, the koff worked out at 0.0002 s⁻¹ and the kon was 8.53e+06 M⁻¹ s⁻¹.

On to B6, for which the Kd was 0.0454 nM, the koff turned out to be 0.0005 s⁻¹ and the kon was found to be 9.81e+06 M⁻¹ s⁻¹.

In the case of B7, the dissociation constant Kd was 0.0376 nM, the koff was determined as 0.0003 s⁻¹ and the kon came to 7.54e+06 M⁻¹ s⁻¹.

The next assay has as its target IT1-Fc-E10 scFv-Fc-scFv bispecific molecule (human). Description: SPR.
The molecule B8 came in with a Kd of 0.067 nM.

In the next assay the target is IT1-Fc-3B4 scFv-Fc-scFv bispecific molecule (human). Description: SPR.
Turning to B8, the dissociation constant Kd is 0.8 nM.

The next assay concerns the target IT1-Fc-A1 scFv-Fc-scFv bispecific molecule (human). Description: SPR.
The molecule B8 gave a Kd of 0.01 nM.

Source of the values: PMC3896602 (mAbs, 2013).
